From PMC11602162

Molecular target: N-NTD (SARS-CoV-2 (Wuhan-Hu-1)) (UniProt P0DTC9)
Assay: DSF
Details: 10 mM Tris-HCl pH 7.4, 150 mM NaCl, 1 mM MgCl2, BLI with 0.05% Tween-20

## TCGGACATCGGAATGTCTGA [A58-20 T6-to-A]
  binding signal: -0.5 C (Tm shift)
